Results from patent US12186374B2 (Sanofi-Aventis Deutschland GmbH, priority 2014, dated 2025).

How the values were obtained:
[1] = system: patients with Type 2 diabetes mellitus (T2DM); assay: HbA1c change from baseline to Week 30 (Example 2, on top of metformin); type: in vivo, human; details: for HbA1c change from baseline to Week 30, LS Mean (SE): MMRM
Protocol: For the eligibility and efficacy assessments of the study, HbA1c is measured by a certified level I “National Glycohemoglobin Standardization Program” (NGSP) central laboratory.
Randomization was stratified by values of HbA1c at visit 4 (<8%, […]) and second oral anti-diabetic (OAD) use at screening (Yes, No).
Diagnosis and criteria for inclusion: Inclusion criteria: Patients with type 2 diabetes mellitus (T2DM) diagnosed for at least 1 year before the screening visit, treated for at least 3 months prior to Visit 1 with metformin alone or metformin and a second oral anti-diabetic treatment that could be a SU, a glinide, a SGLT-2 inhibitor, or a DPP-4 inhibitor, and who were not adequately controlled with this treatment.
Efficacy analysis was based on modified intent-to-treat (mITT) population using efficacy assessments collected during the study, including those obtained after IMP discontinuation or introduction of rescue therapy. The mITT population consisted of all randomized patients who had both a baseline assessment and at least one post-baseline assessment of any primary or secondary efficacy variables.
The primary efficacy endpoint was analyzed using a mixed-effect model with repeated measures (MMRM). The MMRM model included the treatment groups, randomization strata, visit, treatment-by-visit interaction, and country as fixed-effect factors, and the baseline HbA1c-by-visit interaction as covariate.

[2] = system: patients with Type 2 diabetes mellitus (T2DM); assay: Average 7-point SMPG change from baseline to Week 30 (Example 2); type: in vivo, human; details: mITT population
Excerpt: Self-monitored plasma glucose (SMPG)”, as used herein, is in particular the “7-point Self Monitored Plasma Glucose”. “7-point Self Monitored Plasma Glucose” in particular refers to the measurement of plasma glucose seven times a day and calculation of the average plasma glucose concentration therefrom. The “7-point Self Monitored Plasma Glucose” value is in particular an average plasma glucose concentration including fasting and postprandial conditions. In particular, measurements of plasma glucose concentration are performed pre-breakfast, post-breakfast (e.g. 2-hour post-breakfast), pre-lunch, post-lunch (e.g. 2-hour post-lunch), pre-dinner, post-dinner (e.g. 2-hour post-dinner) and at bed-time.
The 7-point SMPG profile should be measured at the following 7 points: pre-prandial and 2 hours postprandial for breakfast, lunch, dinner and at bedtime. Two hours postprandial (breakfast, lunch and dinner) is defined as 2 hours after the start of the meal.
The patients are requested to perform 7-point SMPG profile measurement over a single 24-hour period on 2 Different Days in the Week Before V6 (Week 0), V15 (Week 12), and V21 (week 30, end of treatment assessment visit). All SMPG values measured on these days will be recorded in diary and transferred into the e-CRF.

patients with T2DM = assay: Treatment-emergent adverse events incl. serious, fatal, leading to discontinuation (Example 3)
[3] = PT ≥3% in any treatment group, Safety population

## Gly(A21)-Arg(B31)-Arg(B32)-human insulin [Insulin Glargine]
[1]; mITT population
  HbA1c change from baseline to Week 30, LS Mean (SE): −1.34 (0.039) %
[1]; mITT population, listed as insulin glargine
  HbA1c change from baseline to Week 30, LS Mean (SE): −1.34%
[1]; Week 30, mITT population
  HbA1c (%) Week 30 Mean (SD): 6.81 (0.76) %
  HbA1c (%) Week 30 Median: 6.70%
[1]; Week 30, mITT population, listed as insulin glargine
  HbA1c (%) Week 30 Mean (SD): 6.8%
[1]; baseline, mITT population
  HbA1c (%) Baseline Mean (SD): 8.08 (0.69) %
  HbA1c (%) Baseline Median: 8.00%
[2]; MMRM
  Average of 7-point SMPG, change from baseline to Week 30, LS Mean (SE): −2.66 (0.084) mmol/L
[2]
  Average of 7-point SMPG, Week 30, Mean (SD): 7.75 (1.49) mmol/L
  Average of 7-point SMPG, Week 30, Median: 7.49 mmol/L
Patients with T2DM; Example 3
  Diarrhoea, % of patients: 2.7%
  Incidence of gastrointestinal disorder (System organ class) events: 7.9%
  Nasopharyngitis, % of patients: 8.8%
  Nausea, % of patients: 0.5%
  Patients discontinuing due to nausea, number: none
  Patients reporting treatment-emergent adverse events, %: 52.3%
  Patients reporting treatment-emergent adverse events, number: 191 patients
  Patients who withdrew from treatment due to TEAEs, %: 0.8%
  Patients who withdrew from treatment due to TEAEs, number: 3 patients
  Patients with at least 1 TEAE leading to death: 2 patients
  Serious TEAEs, % of patients: 4.9%
  Serious TEAEs, number of patients: 18 patients
  Vomiting, % of patients: 0.5%
Patients with T2DM; [3]
  Common TEAE, PT Diarrhoea, number of patients: 10 n
  Common TEAE, PT Diarrhoea, percentage of patients: (2.7%)
  Common TEAE, PT Headache, number of patients: 10 n
  Common TEAE, PT Headache, percentage of patients: (2.7%)
  Common TEAE, PT Influenza, number of patients: 11 n
  Common TEAE, PT Influenza, percentage of patients: (3.0%)
  Common TEAE, PT Nasopharyngitis, number of patients: 32 n
  Common TEAE, PT Nasopharyngitis, percentage of patients: (8.8%)
  Common TEAE, PT Nausea, number of patients: 2 n
  Common TEAE, PT Nausea, percentage of patients: (0.5%)
  Common TEAE, PT Upper respiratory tract infection, number of patients: 11 n
  Common TEAE, PT Upper respiratory tract infection, percentage of patients: (3.0%)
  Common TEAE, PT Vomiting, number of patients: 2 n
  Common TEAE, PT Vomiting, percentage of patients: (0.5%)
  Common TEAE, SOC Gastrointestinal disorders, number of patients: 29 n
  Common TEAE, SOC Gastrointestinal disorders, percentage of patients: (7.9%)
  Common TEAE, SOC Infections and infestations, number of patients: 112 n
  Common TEAE, SOC Infections and infestations, percentage of patients: (30.7%)
  Common TEAE, SOC Nervous system disorders, number of patients: 19 n
  Common TEAE, SOC Nervous system disorders, percentage of patients: (5.2%)
Patients with T2DM; PT, Safety population
  % of patients experiencing TEAE(s) leading to permanent treatment discontinuation: Cardiopulmonary failure: (0.3%)
  % of patients experiencing TEAE(s) leading to permanent treatment discontinuation: Gallbladder cancer: (0.3%)
  % of patients experiencing TEAE(s) leading to permanent treatment discontinuation: Pregnancy: (0.3%)
  % of patients experiencing serious TEAE(s): Benign prostatic hyperplasia: (0.3%)
  % of patients experiencing serious TEAE(s): Cardiac failure congestive: (0.3%)
  % of patients experiencing serious TEAE(s): Cardiopulmonary failure: (0.3%)
  % of patients experiencing serious TEAE(s): Chest discomfort: (0.3%)
  % of patients experiencing serious TEAE(s): Cholecystitis acute: (0.3%)
  % of patients experiencing serious TEAE(s): Gallbladder cancer: (0.3%)
  % of patients experiencing serious TEAE(s): Glaucoma: (0.3%)
  % of patients experiencing serious TEAE(s): Hypertension: (0.3%)
  % of patients experiencing serious TEAE(s): Hypoglycaemia: (0.3%)
  % of patients experiencing serious TEAE(s): Intervertebral disc protrusion: (0.3%)
  % of patients experiencing serious TEAE(s): Kaposi’s sarcoma: (0.3%)
  % of patients experiencing serious TEAE(s): Meniscus injury: (0.3%)
  % of patients experiencing serious TEAE(s): Non-cardiac chest pain: (0.3%)
  % of patients experiencing serious TEAE(s): Osteomyelitis: (0.3%)
  % of patients experiencing serious TEAE(s): Pneumonia: (0.3%)
  % of patients experiencing serious TEAE(s): Renal impairment: (0.3%)
  % of patients experiencing serious TEAE(s): Wound infection: (0.3%)
  Number of patients experiencing TEAE(s) leading to permanent treatment discontinuation: Angina unstable: 0
  Number of patients experiencing TEAE(s) leading to permanent treatment discontinuation: Benign gastric neoplasm: 0
  Number of patients experiencing TEAE(s) leading to permanent treatment discontinuation: Cardiopulmonary failure: 1
  Number of patients experiencing TEAE(s) leading to permanent treatment discontinuation: Dizziness: 0
  Number of patients experiencing TEAE(s) leading to permanent treatment discontinuation: Gallbladder cancer: 1
  Number of patients experiencing TEAE(s) leading to permanent treatment discontinuation: Hypoglycaemic unconsciousness: 0
  Number of patients experiencing TEAE(s) leading to permanent treatment discontinuation: Nausea: 0
  Number of patients experiencing TEAE(s) leading to permanent treatment discontinuation: Pneumonia: 0
  Number of patients experiencing TEAE(s) leading to permanent treatment discontinuation: Pregnancy: 1
  Number of patients experiencing TEAE(s) leading to permanent treatment discontinuation: Weight increased: 0
